Results reported in patent publication US20030064921A1, “Methods and compounds for modulating melanocortin receptor ligand binding and activity” (The Regents of the University of California, priority 1999, published 2003).
Where no end group is shown, it is not given here.

Experiments:
MC IR = MC IR (Homo sapiens, UniProt Q01726); assay: Displacement of NDP-MSH at melanocortin receptor (binding)
Protocol: (§1) Suitable binding assays are well known to those of skill in the art. In a preferred embodiment, the binding assay is a competitive assay that measures the ability of the test composition to displace/compete a reference ligand from a melanocortin receptor. In one preferred approach specific binding of ligands of this invention to cells expressing the MC-3 receptor is determined by competition experiments using labeled (e.g. ^125I-labeled) Nle^4-D-Phe^7-α-MSH (NDP-MSH), as described in Tatro et al. (1990) Cancer Res. 50: 1237-1242).
(§2) The mini-AGRP binding was tested by examining its ability to displace NDP-MSH, a well established high affinity MCR agonist. […] Antagonist activity was then determined using a cAMP assay.

MC3R [1] = target: T1, MC3R (Homo sapiens, UniProt P41968); assay: as above
T1 sequence (P41968 whole entry): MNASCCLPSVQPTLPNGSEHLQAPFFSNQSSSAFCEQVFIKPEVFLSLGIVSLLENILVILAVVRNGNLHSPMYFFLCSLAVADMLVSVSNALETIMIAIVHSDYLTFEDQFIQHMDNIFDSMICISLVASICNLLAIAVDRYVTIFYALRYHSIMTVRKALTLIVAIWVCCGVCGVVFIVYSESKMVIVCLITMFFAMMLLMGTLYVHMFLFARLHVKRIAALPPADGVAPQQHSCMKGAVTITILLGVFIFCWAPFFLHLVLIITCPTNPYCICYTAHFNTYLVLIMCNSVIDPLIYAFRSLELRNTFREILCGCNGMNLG
Protocol: as §1, §2

MC4R [2] = target: T2, MC4R (Homo sapiens, UniProt P32245); assay: as above
T2 sequence (P32245 whole entry): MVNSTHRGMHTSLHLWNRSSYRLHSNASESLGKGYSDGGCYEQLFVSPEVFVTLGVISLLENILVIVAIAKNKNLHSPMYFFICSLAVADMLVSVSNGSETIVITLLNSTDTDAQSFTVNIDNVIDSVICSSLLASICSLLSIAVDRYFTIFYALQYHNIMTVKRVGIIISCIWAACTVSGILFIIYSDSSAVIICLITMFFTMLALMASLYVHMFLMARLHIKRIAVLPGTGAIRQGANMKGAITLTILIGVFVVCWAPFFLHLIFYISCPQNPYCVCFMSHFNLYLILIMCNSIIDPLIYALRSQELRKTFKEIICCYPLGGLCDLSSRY
Protocol: as §1, §2

MC5R = MC5R (Homo sapiens, UniProt P33032); assay: as above
MC5R, sequence (P33032 whole entry): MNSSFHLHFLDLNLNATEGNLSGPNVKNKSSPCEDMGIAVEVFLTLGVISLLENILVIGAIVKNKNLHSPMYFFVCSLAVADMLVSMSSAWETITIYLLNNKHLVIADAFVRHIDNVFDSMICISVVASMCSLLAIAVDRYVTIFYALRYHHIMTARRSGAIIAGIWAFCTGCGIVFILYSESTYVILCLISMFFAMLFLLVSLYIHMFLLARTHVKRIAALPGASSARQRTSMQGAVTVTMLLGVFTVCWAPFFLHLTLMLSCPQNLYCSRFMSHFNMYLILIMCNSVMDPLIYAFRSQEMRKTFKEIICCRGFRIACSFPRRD
Protocol: as §1, §2

MC3R [3] = target: T1, MC3R; assay: cAMP assay, suppression of α-MSH stimulated cAMP production; type: cell-based
Description: (§3) Preferred assays measure, directly, or indirectly, melanocortin receptor induced changes in intracellular cAMP concentrations. One such assay measures the ability of cAMP to displace (8-^3H) cAMP from a high affinity cAMP binding protein (see Gilman (1979) Proc. Natl. Acad. Sci., USA, 67: 305-312). Briefly, test cells are exposed to the ligands to be screened. Following treatment, the cells are washed twice with phosphate buffered saline and intracellular cAMP extracted by lysing the cells with 1 mL of 60% ethanol. The assay is then run as described by Gilman, supra.).
as §2

MC4R [4] = target: T2, MC4R; assay: as above; type: cell-based
Description: as §3, §2

human MC4r = target: T3, human MC4r (Homo sapiens, UniProt P32245); assay: Inhibition of NDP-MSH stimulated cAMP generation in HEK-293 cells transfected with human MC4r; type: cell-based; conditions: 5.0×10^−6 M
T3 construct: expressed in transfected cells; host or cells: HEK-293
T3 sequence (P32245 whole entry): as the sequence (P32245 whole entry) above
Protocol: Control experiments were performed with no MARP. […] Additional samples for HX experiments were prepared by lyophilization of protonated samples followed by reconstitution in 700 μl D2O.
This experiment measured inhibition of NDP-MSH stimulated cAMP generation in cells transfected with MC4r. A control experiment was conducted with no MARP present.

[5] = target: T4, human melanocortin receptor 4 (human, UniProt P32245 1-332); assay: displacement of NDP-MSH from the receptor
T4 construct: whole, on cells; also called MC4r; MC4R
T4 sequence (P32245 whole entry): as above

MC3R [6] = target: T1, MC3R; conditions: versus agouti; cited from earlier work
MC4R [7] = target: T2, MC4R; conditions: versus agouti; cited from earlier work

MC IR, sequence (Q01726 whole entry): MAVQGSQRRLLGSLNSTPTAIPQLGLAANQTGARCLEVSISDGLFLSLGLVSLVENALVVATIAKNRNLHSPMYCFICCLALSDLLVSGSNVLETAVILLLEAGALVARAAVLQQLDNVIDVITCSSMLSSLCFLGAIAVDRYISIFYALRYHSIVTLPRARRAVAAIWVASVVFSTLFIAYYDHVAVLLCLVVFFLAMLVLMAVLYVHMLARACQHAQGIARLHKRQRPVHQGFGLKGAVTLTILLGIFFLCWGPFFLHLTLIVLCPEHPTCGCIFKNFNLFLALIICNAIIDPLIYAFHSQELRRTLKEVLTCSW

**Q.** For “Ac-CVRLHESCLGQQVPCCDPAATCYCRFFNAFCYCR-NH2 (disulfide (positions not given here); not fully specified (bridges); printed as Ac-CVRLHESCLGQQVPCCDPAATCYCRFFNAFCYCR-NH2) [mini-AGRP]”, which “displacement of NDP-MSH, potency compared with AGRP(87-132)” value (from here on “displacement … compared with AGRP(87-132)”) (MC IR) is on record?
**A.** potency equivalent to that of AGRP(87-132)

**Q.** What about the “displacement … compared with AGRP(87-132)” value (MC3R [1]) of the same molecule?
**A.** potency equivalent to that of AGRP(87-132)

**Q.** And the “displacement … compared with AGRP(87-132)” value (MC4R [2])?
**A.** potency equivalent to that of AGRP(87-132)

**Q.** What about the “displacement … compared with AGRP(87-132)” value (MC5R) of the same molecule?
**A.** potency equivalent to that of AGRP(87-132)

**Q.** And the “antagonist activity: suppression of α-MSH stimulated cAMP production” value (MC3R [3])?
**A.** potent activity

**Q.** And the “antagonist activity: suppression of α-MSH stimulated cAMP production” value (MC4R [4])?
**A.** potent activity

**Q.** Which “inhibition of NDP-MSH stimulated cAMP generation” value (human MC4r) does the source give for “MARP with Arg-25 to Ala substitution: MARP single mutant with Arg-25 replaced by Ala in the active loop, chemically synthesized (Ac-CVRLHESCLGQQVPCCDPCATCYCAFFNAFCYCRKLGTAMNPCSRT; disulfide (positions not given here))” here?
**A.** complete loss of inhibitory activity

B1: mini-AGRP Ac-CVRLHESCLGQQVPCCDPAATCYCRFFNAFCYCR-NH2 (peptide)
peptide: Ac-CVRLHESCLGQQVPCCDPAATCYCRFFNAFCYCR-NH2
modifications: disulfide (positions not given here); not fully specified (bridges); printed as Ac-CVRLHESCLGQQVPCCDPAATCYCRFFNAFCYCR-NH2; also: four disulfide bonds, pairing not given here
notes: Fmoc solid-phase synthesis, folded under oxidizing conditions
**Q.** Does B1 bind [5]?
**A.** binds

B2: AGRP: human AGRP is a 132 residue polypeptide (SEQ ID NO:1), natural antagonist of melanocortin receptors 3 and 4 (protein, listed as Homo sapiens)
chain: MLTAAVLSCALLLALPATRGAQMGLAPMEGIRRPDQALLPELPGLGLRAPLKKTTAEQAEEDLLQEAQALAEVLDLQDREPRSSRRCVRLHESCLGQQVPCCDPCATCYCRFFNAFCYCRKLGTAMNPCSRT
**Q.** For B2, which “binding affinity greater than agouti” value (MC3R [6]) is on record?
**A.** approximately 100 fold

**Q.** What about the “binding affinity greater than agouti” value (MC4R [7]) of the same molecule?
**A.** approximately 100 fold
